Measurements reported in patent publication US20230407298A1 (Johns Hopkins, published 2023).

B1: Lamin B1 (other, human, UniProt P20700 2-583, looked up)
chain: ATATPVPPRMGSRAGGPTTPLSPTRLSRLQEKEELRELNDRLAVYIDKVRSLETENSALQLQVTEREEVRGRELTGLKALYETELADARRALDDTARERAKLQIELGKCKAEHDQLLLNYAKKESDLNGAQIKLREYEAALNSKDAALATALGDKKSLEGDLEDLKDQIAQLEASLAAAKKQLADETLLKVDLENRCQSLTEDLEFRKSMYEEEINETRRKHETRLVEVDSGRQIEYEYKLAQALHEMREQHDAQVRLYKEELEQTYHAKLENARLSSEMNTSTVNSAREELMESRMRIESLSSQLSNLQKESRACLERIQELEDLLAKEKDNSRRMLTDKEREMAEIRDQMQQQLNDYEQLLDVKLALDMEISAYRKLLEGEEERLKLSPSPSSRVTVSRASSSRSVRTTRGKRKRVDVEESEASSSVSISHSASATGNVCIEEIDVDGKFIRLKNTSEQDQPMGGWEMIRKIGDTSVSYKYTSRYVLKAGQTVTIWAANAGVTASPPTDLIWKNQNSWGTGEDVKVILKNSQGEEVAQRSTVFKTTIPEEEEEEEEAAGVVVEEELFHQQGTPRASNRSC
notes: Absent from XPO1 immunoprecipitates by western blot
B2: LEMD2 (other, human, UniProt Q8NC56 2-503, looked up)
chain: AGLSDLELRRELQALGFQPGPITDTTRDVYRNKLRRLRGEARLRDEERLREEARPRGEERLREEARLREDAPLRARPAAASPRAEPWLSQPASGSAYATPGAYGDIRPSAASWVGSRGLAYPARPAQLRRRASVRGSSEEDEDARTPDRATQGPGLAARRWWAASPAPARLPSSLLGPDPRPGLRATRAGPAGAARARPEVGRRLERWLSRLLLWASLGLLLVFLGILWVKMGKPSAPQEAEDNMKLLPVDCERKTDEFCQAKQKAALLELLHELYNFLAIQAGNFECGNPENLKSKCIPVMEAQEYIANVTSSSSAKFEAALTWILSSNKDVGIWLKGEDQSELVTTVDKVVCLESAHPRMGVGCRLSRALLTAVTNVLIFFWCLAFLWGLLILLKYRWRKLEEEEQAMYEMVKKIIDVVQDHYVDWEQDMERYPYVGILHVRDSLIPPQSRRRMKRVWDRAVEFLASNESRIQTESHRVAGEDMLVWRWTKPSSFSDSER
notes: Absent from XPO1 immunoprecipitates by western blot; also called LEM2

Target: T1, XPO1 (human, UniProt O14980 1-1071)
T1 construct: Endogenous protein pulled down from iPSN nuclear lysates with mouse anti-XPO1 (Santa Cruz sc-74454) coupled to Protein G beads; also called CRM1; XPO1/CRM1
T1 sequence (O14980 whole entry): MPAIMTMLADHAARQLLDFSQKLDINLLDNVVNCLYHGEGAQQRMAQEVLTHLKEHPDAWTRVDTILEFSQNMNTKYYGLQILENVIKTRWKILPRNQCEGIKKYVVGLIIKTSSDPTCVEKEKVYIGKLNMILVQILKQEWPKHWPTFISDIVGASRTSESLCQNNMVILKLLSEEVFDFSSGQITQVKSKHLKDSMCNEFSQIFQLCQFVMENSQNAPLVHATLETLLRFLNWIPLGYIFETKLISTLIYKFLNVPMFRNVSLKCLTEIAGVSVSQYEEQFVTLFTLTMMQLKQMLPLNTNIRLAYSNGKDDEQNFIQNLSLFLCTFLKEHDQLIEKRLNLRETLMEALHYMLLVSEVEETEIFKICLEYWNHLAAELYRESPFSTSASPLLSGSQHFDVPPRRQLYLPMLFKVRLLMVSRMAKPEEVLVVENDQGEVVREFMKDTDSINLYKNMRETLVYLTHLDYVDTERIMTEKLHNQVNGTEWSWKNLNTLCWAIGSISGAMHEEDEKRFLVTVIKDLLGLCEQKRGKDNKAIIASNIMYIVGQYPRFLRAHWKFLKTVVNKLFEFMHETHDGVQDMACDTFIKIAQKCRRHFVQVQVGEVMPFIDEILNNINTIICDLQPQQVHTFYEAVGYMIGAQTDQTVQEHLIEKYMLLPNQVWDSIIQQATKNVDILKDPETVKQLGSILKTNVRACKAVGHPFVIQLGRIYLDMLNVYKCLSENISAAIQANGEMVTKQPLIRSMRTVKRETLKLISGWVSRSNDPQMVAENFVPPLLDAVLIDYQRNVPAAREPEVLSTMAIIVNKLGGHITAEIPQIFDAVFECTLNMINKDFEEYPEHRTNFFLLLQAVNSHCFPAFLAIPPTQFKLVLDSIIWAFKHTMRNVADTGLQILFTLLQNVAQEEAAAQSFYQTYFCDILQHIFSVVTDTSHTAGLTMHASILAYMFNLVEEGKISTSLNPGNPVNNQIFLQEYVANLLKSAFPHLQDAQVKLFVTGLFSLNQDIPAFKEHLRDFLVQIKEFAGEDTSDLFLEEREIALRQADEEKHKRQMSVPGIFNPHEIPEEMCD
Assay: co-immunoprecipitation with anti-XPO1 from iPSN nuclear lysates, western blot
Method: Nuclei were isolated from iPSNs as described above. The resulting nuclei pellet was lysed in 1 mL IP buffer by vortexing for 30-45 seconds. Nuclei lysates were centrifuged for 10 minutes at 2500 rpm and 4° C. to remove debris. Following centrifugation, the supernatant was transferred to a clean Eppendorf tube. 25 μL of the supernatant was added to μL 2× Laemmli buffer (BioRad) and set aside as protein input and an additional 25 μL supernatant was set aside on ice as RNA input. The remainder of the lysate was split equally between IgG and XPO1 antibody conjugated bead tubes. Lysates were incubated with beads with end over end rotation for 2 hours at 4° C. The unbound supernatant was discarded and immunoprecipitated complexes were washed 3×5 minutes in 200 μL IP buffer with end over end rotation at 4° C. Bead-IP complexes were resuspended in 200 μL IP buffer. 100 μL of each bead-IP complex sample was set aside for RNA analysis. For the remaining 100 μL, the supernatant was discarded and 50 μL 1× Laemmli buffer was added to bead-IP complexes. All RNA samples (including input) were added to 500 μL RLT Buffer (QIAGEN) and RNA isolation, cDNA synthesis, and qRT-PCR were performed as described below. Protein samples were analyzed by western blot as described below. Equal volumes of each sample (10 μL) were loaded in acrylamide gels. […]

Row | Binder | binding result
1 | B1 | no binding
2 | B2 | no binding
